Molecular target: T1, PhoB~P (phosphorylated PhoB) (Escherichia coli) (UniProt P0AFJ5)
T1 sequence: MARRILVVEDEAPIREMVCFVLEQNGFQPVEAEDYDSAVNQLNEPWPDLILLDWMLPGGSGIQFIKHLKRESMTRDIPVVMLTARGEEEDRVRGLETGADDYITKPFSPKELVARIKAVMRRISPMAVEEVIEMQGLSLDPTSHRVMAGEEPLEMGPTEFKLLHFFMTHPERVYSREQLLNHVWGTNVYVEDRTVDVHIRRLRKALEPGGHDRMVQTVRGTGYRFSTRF
Experiment: EMSA
Conditions: phosphoramidate-phosphorylated PhoB, 50 mM Tris pH 7.6, 200 mM NaCl, 0.1 mg/ml BSA, 2 mM MgCl2, 1 mM DTT, 5% glycerol, ~0.1 uM DNA (mM in the source), 15 uM nonfluorescent competitor dsDNA, 30 min, 12% …

CTGCAGGAAGAAGGAAAACGCTGGTTTGACAATCTTGCCGCTAACGGAAAAATCGAAATGGCCTGGCAGGAAACTTTCTGGGCGCATGGCTTTGGCAAAGTCACCGATAAATTTGGCGTACCGTGGATGATTAATGTCGTCAAACAACAACCAACGCAATAACCCGCCGGGAGGCCCGCCCTCCCGCACTGTCATCGAATTCCCGTTAACTCTTCATCTGTTAGTCACTTTTAATTAACCAAATCGTCACAATAATCCGCCACGATGGAGCCACTTTTTTAGGGAGGCTGCATCATGCAAACGATTTGATCTAGAAATAATTTTGTTTAACTTTAAGAAGGAGATATACAAATGGTGAGC (double strand) [phnC promoter]
Kd (Hill fit): 0.0017 mM

GCCACGGAAATCAATAACCTGAAGATATGTGCGACGAGCTTTTCATAAATCTGTCATAAATCTGACGCATAATGACGTCGCATTAATGATCGCAACCTATTTATTACAACAGGGCTGATCTAGAAATAATTTTGTTTAACTTTAAGAAGGAGATATACAAATGGTGAGC (double strand) [phoB promoter]
Kd (two-site per DNA binding model): 0.00025 mM
